Data published in patent US20170275666A1, “Methods for Preparing Rebaudioside I and Uses” (The Coca-Cola Company, priority 2014, published 2017).
Numbering of substitutions follows the chain as printed.

B1: UGT76G1var8: UGT76G1 variant, mutations E224A_Q266S_Q342E (protein, UniProt Q6VAB4 1-458, looked up, variant E224A Q266S Q342E)
UDP-glycosyltransferase 76G1: MENKTETTVRRRRRIILFPVPFQGHINPILQLANVLYSKGFSITIFHTNFNKPKTSNYPHFTFRFILDNDPQDERISNLPTHGPLAGMRIPIINEHGADELRRELELLMLASEEDEEVSCLITDALWYFAQSVADSLNLRRLVLMTSSLFNFHAHVSLPQFDELGYLDPDDKTRLEEQASGFPMLKVKDIKSAYSNWQILKEILGKMIKQTKASSGVIWNSFKALEESELETVIREIPAPSFLIPLPKHLTASSSSLLDHDRTVFSWLDQQPPSSVLYVSFGSTSEVDEKDFLEIARGLVDSKQSFLWVVRPGFVKGSTWVEPLPDGFLGERGRIVKWVPQEEVLAHGAIGAFWTHSGWNSTLESVCEGVPMIFSDFGLDQPLNARYMSDVLKVGVYLENGWERGEIANAIRRVMVDEEGEYIRQNARVLKQKADVSLMKGGSSYESLESLVSYISSL
B2: UGT76G1var25: UGT76G1 variant, mutations T284L_Q342K_Y397Q (protein, UniProt Q6VAB4 1-458, looked up, variant T284L Q342K Y397Q)
UDP-glycosyltransferase 76G1: B1 UDP-glycosyltransferase 76G1 with A224E, S266Q, T284L, E342K, Y397Q
B3: UGT76G1var31: UGT76G1 variant, mutations E224D_L243P_V300A (protein, UniProt Q6VAB4 1-458, looked up, variant E224D L243P V300A)
UDP-glycosyltransferase 76G1: B1 UDP-glycosyltransferase 76G1 with A224D, L243P, S266Q, V300A, E342Q
B4: UGT76G1var18: UGT76G1 variant, mutations L243P_S274G_N409R (protein, UniProt Q6VAB4 1-458, looked up, variant L243P S274G N409R)
UDP-glycosyltransferase 76G1: B1 UDP-glycosyltransferase 76G1 with A224E, L243P, S266Q, S274G, E342Q, N409R
B5: UGT76G1var14: UGT76G1 variant, mutations A239I_F265I_V396F (protein, UniProt Q6VAB4 1-458, looked up, variant A239I F265I V396F)
UDP-glycosyltransferase 76G1: B1 UDP-glycosyltransferase 76G1 with A224E, A239I, F265I, S266Q, E342Q, V396F
B6: UGT76G1var17: UGT76G1 variant, mutations F265L_Q266E_Q342K (protein, UniProt Q6VAB4 1-458, looked up, variant F265L Q266E Q342K)
UDP-glycosyltransferase 76G1: B1 UDP-glycosyltransferase 76G1 with A224E, F265L, S266E, E342K
B7: UGT76G1var27: UGT76G1 variant, mutations A239I_L379A_V394I (protein, UniProt Q6VAB4 1-458, looked up, variant A239I L379A V394I)
UDP-glycosyltransferase 76G1: B1 UDP-glycosyltransferase 76G1 with A224E, A239I, S266Q, E342Q, L379A, V394I
B8: UGT76G1var11: UGT76G1 variant, mutations F22L_A33G_V310I (protein, UniProt Q6VAB4 1-458, looked up, variant F22L A33G V310I)
UDP-glycosyltransferase 76G1: B1 UDP-glycosyltransferase 76G1 with F22L, A33G, A224E, S266Q, V310I, E342Q
B9: UGT76G1var28: UGT76G1 variant, mutations L243A_S274G_P382M (protein, UniProt Q6VAB4 1-458, looked up, variant L243A S274G P382M)
UDP-glycosyltransferase 76G1: B1 UDP-glycosyltransferase 76G1 with A224E, L243A, S266Q, S274G, E342Q, P382M
B10: UGT76G1var26: UGT76G1 variant, mutations S241I_F265L_F377C (protein, UniProt Q6VAB4 1-458, looked up, variant S241I F265L F377C)
UDP-glycosyltransferase 76G1: B1 UDP-glycosyltransferase 76G1 with A224E, S241I, F265L, S266Q, E342Q, F377C
B11: UGT76G1var21: UGT76G1 variant, mutations A239V_V300A_K303G (protein, UniProt Q6VAB4 1-458, looked up, variant A239V V300A K303G)
UDP-glycosyltransferase 76G1: B1 UDP-glycosyltransferase 76G1 with A224E, A239V, S266Q, V300A, K303G, E342Q
B12: UGT76G1var32: UGT76G1 variant, mutations A239V_L243A_S375M (protein, UniProt Q6VAB4 1-458, looked up, variant A239V L243A S375M)
UDP-glycosyltransferase 76G1: B1 UDP-glycosyltransferase 76G1 with A224E, A239V, L243A, S266Q, E342Q, S375M
B13: UGT76G1var12: UGT76G1 variant, mutations L243P_K303G_A352G (protein, UniProt Q6VAB4 1-458, looked up, variant L243P K303G A352G)
UDP-glycosyltransferase 76G1: B1 UDP-glycosyltransferase 76G1 with A224E, L243P, S266Q, K303G, E342Q, A352G
B14: UGT76G1var10: UGT76G1 variant, mutations A33G_L246F_Q342E (protein, UniProt Q6VAB4 1-458, looked up, variant A33G L246F Q342E)
UDP-glycosyltransferase 76G1: B1 UDP-glycosyltransferase 76G1 with A33G, A224E, L246F, S266Q
B15: UGT76G1var30: UGT76G1 variant, mutations I43V_E224A_S241I (protein, UniProt Q6VAB4 1-458, looked up, variant I43V E224A S241I)
UDP-glycosyltransferase 76G1: B1 UDP-glycosyltransferase 76G1 with I43V, S241I, S266Q, E342Q
B16: UGT76G1var23: UGT76G1 variant, mutations T263S_G348P_A352G (protein, UniProt Q6VAB4 1-458, looked up, variant T263S G348P A352G)
UDP-glycosyltransferase 76G1: B1 UDP-glycosyltransferase 76G1 with A224E, T263S, S266Q, E342Q, G348P, A352G
B17: UGT76G1var22: UGT76G1 variant, mutations E231A_V310I_R334K (protein, UniProt Q6VAB4 1-458, looked up, variant E231A V310I R334K)
UDP-glycosyltransferase 76G1: B1 UDP-glycosyltransferase 76G1 with A224E, E231A, S266Q, V310I, R334K, E342Q
B18: UGT76G1var19: UGT76G1 variant, mutations E224D_E229A_Q432E (protein, UniProt Q6VAB4 1-458, looked up, variant E224D E229A Q432E)
UDP-glycosyltransferase 76G1: B1 UDP-glycosyltransferase 76G1 with A224D, E229A, S266Q, E342Q, Q432E
B19: UGT76G1var29: UGT76G1 variant, mutations F22Y_V279I_N409R (protein, UniProt Q6VAB4 1-458, looked up, variant F22Y V279I N409R)
UDP-glycosyltransferase 76G1: B1 UDP-glycosyltransferase 76G1 with F22Y, A224E, S266Q, V279I, E342Q, N409R
B20: UGT76G1var20: UGT76G1 variant, mutations S375M_K393G_Y397E (protein, UniProt Q6VAB4 1-458, looked up, variant S375M K393G Y397E)
UDP-glycosyltransferase 76G1: B1 UDP-glycosyltransferase 76G1 with A224E, S266Q, E342Q, S375M, K393G, Y397E
B21: UGT76G1var9: UGT76G1 variant, mutations E231A_D301N_G348P (protein, UniProt Q6VAB4 1-458, looked up, variant E231A D301N G348P)
UDP-glycosyltransferase 76G1: B1 UDP-glycosyltransferase 76G1 with A224E, E231A, S266Q, D301N, E342Q, G348P
B22: UGT76G1var24: UGT76G1 variant, mutations A239I_P272A_Q425E (protein, UniProt Q6VAB4 1-458, looked up, variant A239I P272A Q425E)
UDP-glycosyltransferase 76G1: B1 UDP-glycosyltransferase 76G1 with A224E, A239I, S266Q, P272A, E342Q, Q425E
B23: UGT76G1var15: UGT76G1 variant, mutations F41L_L246F_Q425E (protein, UniProt Q6VAB4 1-458, looked up, variant F41L L246F Q425E)
UDP-glycosyltransferase 76G1: B1 UDP-glycosyltransferase 76G1 with F41L, A224E, L246F, S266Q, E342Q, Q425E
B24: UGT76G1var13: UGT76G1 variant, mutations L243A_S357C_A385T (protein, UniProt Q6VAB4 1-458, looked up, variant L243A S357C A385T)
UDP-glycosyltransferase 76G1: B1 UDP-glycosyltransferase 76G1 with A224E, L243A, S266Q, E342Q, S357C, A385T
B25: UGT76G1var16: UGT76G1 variant, mutations F265I_P272A_I335V (protein, UniProt Q6VAB4 1-458, looked up, variant F265I P272A I335V)
UDP-glycosyltransferase 76G1: B1 UDP-glycosyltransferase 76G1 with A224E, F265I, S266Q, P272A, I335V, E342Q

Test: Directed evolution of UGT76G1, conversion of Rebaudioside D to Rebaudioside M (round 1)
Format: biochemical
Details: 0.5 mM Rebaudioside D, 2.5 mM UDP-Glucose, 100 μL fresh lysate, 30° C., pH 7.2
From the text: Starting from the amino acid sequence of UGT76G1, as is described in Genbank (AAR06912.1), different mutations at various amino acid positions were identified that could alter the activity of the enzyme for the transformation of Rebaudioside D (Reb D) to Rebaudioside M (Reb M). This list of mutations, designed by DNA2.0 ProteinGPS™ strategy, was subsequently used to synthesize 96 variant genes that contained 3, 4 or 5 of these mutations that were codon-optimized for expression in E. coli. The genes were subcloned in the pET30a+ plasmid and used for transformation of E. coli BL21 (DE3) chemically competent cells. The obtained cells were grown in Petri-dishes on solid LB medium in the presence of Kanamycin. Suitable colonies were selected and allowed to grow in liquid LB medium in tubes. Glycerol was added to the suspension as cryoprotectant and 400 μL aliquots were stored at −20° C. and at −80° C.
These storage aliquots of E. coli BL21(DE3) containing the pET30a+_UGT76G1var plasmids were thawed and added to LBGKP medium (20 g/L Luria Broth Lennox; 50 mM PIPES buffer pH 7.00; 50 mM Phosphate buffer pH 7.00; 2.5 g/L glucose and 50 mg/L of Kanamycine). This culture was allowed to shake in a 96 microtiter plate at 135 rpm at 30° C. for 8 h.
3.95 mL of production medium containing 60 g/L of Overnight Express™ Instant TB medium (Novagen®), 10 g/L of glycerol and 50 mg/L of Kanamycin was inoculated with 50 μL of above described culture. In a 48 deepwell plate the resulting culture was allowed to stir at 20° C. The cultures gave significant growth and a good OD (600 nm; 1 cm) was obtained. After 44 h, the cells were harvested by centrifugation and frozen.
Lysis was performed by addition of Bugbuster® Master mix (Novagen®) to the thawed cells and the lysate was recovered by centrifugation. Activity tests were performed with 100 μL of fresh lysate that was added to a solution of Rebaudioside D (final concentration 0.5 mM), MgCl2 (final concentration 3 mM) and UDP-Glucose (final concentration 2.5 mM) in 50 mM phosphate buffer pH 7.2.
The reaction was allowed to run at 30° C. and samples were taken after 2, 4, 7 and 24 h. to determine conversion and initial rate by HPLC (CAD detection) using the analytical method that was described above for the transformation of Rebaudioside D to Rebaudioside M. The results are depicted in the following table.

Row | Molecule | Conversion Reb D to Reb M after 24 h (%) | initial rate (Reb M area/min)
1 | B1 | 0.5 | 2.3E+04
2 | B2 | 0.9 | 6.3E+04
3 | B3 | 0.4 | 2.4E+05
4 | B4 | 1.9 | 5.0E+05
5 | B5 | 5.3 | 1.5E+06
6 | B6 | 0.7 | 7.2E+05
7 | B7 | 29.0 | 1.5E+07
8 | B8 | 0.4 | 3.8E+04
9 | B9 | 6.1 | 2.4E+06
10 | B10 | 1.8 | 7.5E+05
11 | B11 | 41.9 | 3.3E+07
12 | B12 | 0.0 | −4.4E+04
13 | B13 | 0.5 | 8.7E+04
14 | B14 | 0.3 | −7.7E+02
15 | B15 | 13.6 | 5.6E+06
16 | B16 | 47.8 | 4.1E+07
17 | B17 | 34.4 | 2.4E+07
18 | B18 | 10.5 | 5.5E+06
19 | B19 | 41.0 | 2.9E+07
20 | B20 | 1.8 | 1.9E+06
21 | B21 | 52.0 | 4.9E+07
22 | B22 | 31.0 | 2.1E+07
23 | B23 | 5.6 | 1.5E+06
24 | B24 | 0.2 | −3.3E+04
25 | B25 | 18.6 | 5.8E+06
